Results as given in patent US20230212319A1, “NOVEL ANTIGEN BINDING DOMAINS AND SYNTHETIC ANTIGEN RECEPTORS INCORPORATING THE SAME” (University of Southern California, priority 2020, published 2023).

Columns and labels:
Assay type in all cases: cell-based
RS;411 = experiment: JNG assay, co-culture with RS;411 cells; conditions: co-culture with RS411
Protocol: Cellular supernatant is collected and assayed for the induction of cytokines (e.g., IL2).
JNG (Jurkat cells expressing EGFP under an NFAT promoter) were infected with lentiviral vectors encoding different single chain and multi-chain SARs by spinfection in the presence of 8 µg/ml of Polybrene® (Sigma, Catalog no. H9268). The Jurkat-NFAT-GFP cells are engineered in such a way that the IL-2 promoter, which carries NFAT binding sites, is cloned upstream of the GFP gene. These cells have been used to study signaling via TCR and CAR. The different SARs were stably expressed in Jurkat NFAT-GFP cells by lentiviral mediated gene transfer, followed by selection with puromycin or blasticidin. No drug selection was used in case the construct lacked an antibiotic resistance gene. The SAR-expressing Jurkat-NFAT-GFP cells were cocultured with the target cells at E:T ratio of approximately 1:2 for approximately 4 hours to 18 hours. When the interaction between SIRs and their target antigen results in activation of the NFAT pathway, GFP expression is induced. […] GFP expression was monitored by FACS analysis. The Jurkat-NFAT-GFP (parental) cells were used as control. The structure of different constructs can be determined based on their names. […] The sequence of the other constructs in the table can be similarly determined from their names and by referring to the different Tables of this disclosure that provide the names and SEQ ID NO of the different modules. Alternatively, the composition and modular architecture of the different SAR constructs can be determined from their sequences by bioinformatics tools, including using nucleic acid and amino acids homology searches. A SAR is considered positive in the assay in case the SAR expressing Jurkat-NFAT-GFP cells show greater % GFP positive cells when cultured with the target cell line as compared to parental Jurkat-NFAT-GFP cells. […] In general, the number +/-, +, 2+, 3+, 4+, 5+ refer to approximately 5%, 10%, 20%, 30%, 40% and 50% GFP positive cells. The % of GFP induction in the above assay is dependent not only the relative strength of the SAR but also, among other factors, on the relative level of expression of the SAR in the JNG cells and the relative level of expression of the target antigen in the target cell line. To control for the difference in gene transduction efficiency of the different SAR constructs, the experiment was conducted with JNG cells transduced with SAR constructs co-expressing a drug resistance gene (e.g., puromycin or PAC) followed by drug selection to generate a stable population of SAR-expressing cells. It is to be noted that the drug resistance gene (e.g., PAC) in the SAR constructs is optional and in vivo studies were conducted with SAR constructs lacking the PAC gene.

RAJI cells = experiment: JNG assay, co-culture with RAJI cells; conditions: JNG cells expressing construct, co-culture with Raji
Method in brief: (§1)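 Jurkat NFAT-GFP (JNG) cells stably transduced with SARs by lentivirus, with drug selection where the construct carried a resistance gene, then co-cultured with target cells at E:T ~1:2 for ~4–18 h. % GFP-positive cells measured by FACS against parental JNG; +/- to 5+ correspond to ~5–50% GFP-positive.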

L363 cells = experiment: JNG assay, co-culture with L363 cells; conditions: co-culture with L363
Method in brief: as §1

B1: 22143 (protein)
chain: MALPVTALLLPLALLLHAARPQVQLVESGGGLVQPGGSLRLSCAASGFTFTNHAMSWVRQAPGKGLELVSSISGNGRTTYYADSVKGRFTISRDISKNTLDLQMNSLRAEDTAVYYCAKDGGETLVDSRGQGTLVTVSSLEGGGGSGGGGSIEGGGGSGGGGSKVQLLESGGGLVQPGGSLRLSCAASGFIFSSYAMSWVRQAPGKGQEWVSGVSGTGVNTYYADSVKGRFTISRDNSKNTLYLQMNSLRAEDTAVYYCASGKGWDSGSWYEDYRGQGTLVTVSSGTGGGGSGGGGSGGGGSEFDIQMTQSPSSLSASVGDRVTITCKASDHINNWLAWYQQKPGQAPKLLIYGATTLETGVPSRFSGSGSGTDYTLTISSLQPEDFATYYCQQSWNTPWTFGQGTKLEIKRLEDLKNVFPPEVAVFEPSKAEIAHTQKATLVCLATGFYPDHVELSWWVNGKEVHSGVCTDPQPLKEQPALNDSRYCLSSRLRVSATFWQNPRNHFRCQVQFYGLSENDEWTQDRAKPVTQIVSAEAWGRADCGITSASYHQGVLSATILYEILLGKATLYAVLVSALVLMAMVKRKDSRGRAKRSGSGATNFSLLKQAGDVEENPGPTSATMDWIWRILFLVGAATGAHSGPQVQLQESGGGLAQAGGSLRLSCAASGRTFSMGWFRQAPGKEREFVAAITYSGGSPYYASSVRGRFTISRDNAKNTVYLQMNSLKPEDTAVYYCAANPTYGSDWNAENWGQGTQVTVSSGSGGGGSGGGGSGGGGSFEQVQLQQPGAELVKPGASVKMSCKASGYAFSSYWINWMKQKPGQGLEWIGQIYPGDGDTNYNGKFKGRATLTADTSSSTAYMQLSSLTSEDSAVYFCARSITTVVGCAMDYWGQGTSVTVSSTRIQNPDPAVYQLRDSKSSDKSVCLFTDFDSQTNVSQSKDSDVYITDKCVLDMRSMDFKSNSAVAWSNKSDFACANAFNNSIIPEDTFFPSSDVPCDVKLVEKSFETDTNLNFQNLSVIGFRILLLKVAGFNLLMTLRLWSSRAKRSGSGVKQTLNFDLLKLAGDVESNPGPSRGHMTEYKPTVRLATRDDVPRAVRTLAAAFADYPATRHTVDPDRHIERVTELQELFLTRVGLDIGKVWVADDGAAVAVWTTPESVEAGAVFAEIGPRMAELSGSRLAAQQQMEGLLAPHRPKEPAWFLATVGVSPDHQGKGLGSAVVLPGVEAAERAGVPAFLETSAPRNLPFYERLGFTVTADVEVPEGPRTWCMTRKPGA
NFAT-GFP ASSAY: RS411 (RS;411): 2+ (refer to approximately 5%, 10%, 20%, 30%, 40% and 50% GFP positive cells) | NFAT-GFP ASSAY: Raji (RAJI cells): 2+ (refer to approximately 5%, 10%, 20%, 30%, 40% and 50% GFP positive cells) | NFAT-GFP ASSAY: L363 (L363 cells): 2+ (refer to approximately 5%, 10%, 20%, 30%, 40% and 50% GFP positive cells)

B2: 22106 (protein)
chain: MALPVTALLLPLALLLHAARPDIQMTQSPSSLSASVGDRVTITCKASDHINNWLAWYQQKPGQAPKLLIYGATTLETGVPSRFSGSGSGTDYTLTISSLQPEDFATYYCQQSWNTPWTFGQGTKLEIKRLEDLKNVFPPEVAVFEPSKAEIAHTQKATLVCLATGFYPDHVELSWWVNGKEVHSGVCTDPQPLKEQPALNDSRYCLSSRLRVSATFWQNPRNHFRCQVQFYGLSENDEWTQDRAKPVTQIVSAEAWGRADCGITSASYHQGVLSATILYEILLGKATLYAVLVSALVLMAMVKRKDSRGRAKRSGSGATNFSLLKQAGDVEENPGPTSATMDWIWRILFLVGAATGAHSGPQVQLQESGGGLAQAGGSLRLSCAASGRTFSMGWFRQAPGKEREFVAAITYSGGSPYYASSVRGRFTISRDNAKNTVYLQMNSLKPEDTAVYYCAANPTYGSDWNAENWGQGTQVTVSSGSGGGGSGGGGSGGGGSFEQVQLQQPGAELVKPGASVKMSCKASGYAFSSYWINWMKQKPGQGLEWIGQIYPGDGDTNYNGKFKGRATLTADTSSSTAYMQLSSLTSEDSAVYFCARSITTVVGCAMDYWGQGTSVTVSSTRIQNPDPAVYQLRDSKSSDKSVCLFTDFDSQTNVSQSKDSDVYITDKCVLDMRSMDFKSNSAVAWSNKSDFACANAFNNSIIPEDTFFPSSDVPCDVKLVEKSFETDTNLNFQNLSVIGFRILLLKVAGFNLLMTLRLWSSRAKRSGSGVKQTLNFDLLKLAGDVESNPGPSRGHMTEYKPTVRLATRDDVPRAVRTLAAAFADYPATRHTVDPDRHIERVTELQELFLTRVGLDIGKVWVADDGAAVAVWTTPESVEAGAVFAEIGPRMAELSGSRLAAQQQMEGLLAPHRPKEPAWFLATVGVSPDHQGKGLGSAVVLPGVEAAERAGVPAFLETSAPRNLPFYERLGFTVTADVEVPEGPRTWCMTRKPGA
NFAT-GFP ASSAY: RS411 (RS;411): + (refer to approximately 5%, 10%, 20%, 30%, 40% and 50% GFP positive cells) | NFAT-GFP ASSAY: Raji (RAJI cells): 5+ (refer to approximately 5%, 10%, 20%, 30%, 40% and 50% GFP positive cells)

B3: 22012 (protein)
chain: MDWIWRILFLVGAATGAHSQLQLQESGPGLVKPSETLSLTCTVSGGSVSSSSYYWGWIRQPPGKRLELIGSIYYGGSTYFNPSLKTRVTISVDTSKNQFSLKLSSVTAADTAVYYCAGGDTYGPVGQWPSDYRGQGTLVTVSSLEDLKNVFPPEVAVFEPSEAEISHTQKATLVCLATGFYPDHVELSWWVNGKEVHSGVCTDPQPLKEQPALNDSRYCLSSRLRVSATFWQNPRNHFRCQVQFYGLSENDEWTQDRAKPVTQIVSAEAWGRADCGFTSESYQQGVLSATILYEILLGKATLYAVLVSALVLMAMVKRKDSRGRAKRSGSGATNFSLLKQAGDVEENPGPTSMDWIWRILFLVGAATGAHSFEVQLLESGGGLIQPGGSLRLSCAASGFTFSSHAMTWVRQAPGKGLEWVSAISGSGDYTHYADSVKGRFTISRDNSKNTVYLQMNSLRAEDSAVYYCAKDEDGGSLLGHRGQGTLVTVSSTRIQNPDPAVYQLRDSKSSDKSVCLFTDFDSQTNVSQSKDSDVYITDKCVLDMRSMDFKSNSAVAWSNKSDFACANAFNNSIIPEDTFFPSPESSCDVKLVEKSFETDTNLNFQNLSVIGFRILLLKVAGFNLLMTLRLWSSRAKRSGSGVKQTLNFDLLKLAGDVESNPGPSRGHMTEYKPTVRLATRDDVPRAVRTLAAAFADYPATRHTVDPDRHIERVTELQELFLTRVGLDIGKVWVADDGAAVAVWTTPESVEAGAVFAEIGPRMAELSGSRLAAQQQMEGLLAPHRPKEPAWFLATVGVSPDHQGKGLGSAVVLPGVEAAERAGVPAFLETSAPRNLPFYERLGFTVTADVEVPEGPRTWCMTRKPGA
NFAT-GFP ASSAY: RS411 (RS;411): +/- (refer to approximately 5%, 10%, 20%, 30%, 40% and 50% GFP positive cells) | NFAT-GFP ASSAY: L363 (L363 cells): + (refer to approximately 5%, 10%, 20%, 30%, 40% and 50% GFP positive cells)

B4: 22141 (protein)
chain: MALPVTALLLPLALLLHAARPACEVQLLESGGGLIQPGGSLRLSCAASGFTFSSHAMTWVRQAPGKGLEWVSAISGSGDYTHYADSVKGRFTISRDNSKNTVYLQMNSLRAEDSAVYYCAKDEDGGSLLGHRGQGTLVTVSSGTGGGGSGGGGSGGGGSEFDIQMTQSPSSLSASVGDRVTITCKASDHINNWLAWYQQKPGQAPKLLIYGATTLETGVPSRFSGSGSGTDYTLTISSLQPEDFATYYCQQSWNTPWTFGQGTKLEIKRLEGQPKANPTVTLFPPSSEELQANKATLVCLISDFYPGAVTVAWKADGSPVKAGVETTKPSKQSNNKYAASSYLSLTPEQWKSHRSYSCQVTHEGSTVEKTVAPTECSPIKTDVITMDPKDNCSKDANDTLLLQLTNTSAYYMYLLLLLKSVVYFAIITCCLLRRTAFCCNGEKSRAKRSGSGATNFSLLKQAGDVEENPGPTSATMDWIWRILFLVGAATGAHSGPQVQLQESGGGLAQAGGSLRLSCAASGRTFSMGWFRQAPGKEREFVAAITYSGGSPYYASSVRGRFTISRDNAKNTVYLQMNSLKPEDTAVYYCAANPTYGSDWNAENWGQGTQVTVSSGSGGGGSGGGGSGGGGSFEQVQLQQPGAELVKPGASVKMSCKASGYAFSSYWINWMKQKPGQGLEWIGQIYPGDGDTNYNGKFKGRATLTADTSSSTAYMQLSSLTSEDSAVYFCARSITTVVGCAMDYWGQGTSVTVSSTRASTKGPSVFPLAPSSKSTSGGTAALGCLVKDYFPEPVTVSWNSGALTSGVHTFPAVLQSSGLYSLSSVVTVPSSSLGTQTYICNVNHKPSNTKVDKRVEPKSCEVKTDSTDHVKPKETENTKQPSKSCHKPKAIVHTEKVNMMSLTVLGLRMLFAKTVAVNFLLTAKLFFLRAKRSGSGVKQTLNFDLLKLAGDVESNPGPSRAHMTEYKPTVRLATRDDVPRAVRTLAAAFADYPATRHTVDPDRHIERVTELQELFLTRVGLDIGKVWVADDGAAVAVWTTPESVEAGAVFAEIGPRMAELSGSRLAAQQQMEGLLAPHRPKEPAWFLATVGVSPDHQGKGLGSAVVLPGVEAAERAGVPAFLETSAPRNLPFYERLGFTVTADVEVPEGPRTWCMTRKPGA
NFAT-GFP ASSAY: RS411 (RS;411): 4+ (refer to approximately 5%, 10%, 20%, 30%, 40% and 50% GFP positive cells) | NFAT-GFP ASSAY: Raji (RAJI cells): 4+ (refer to approximately 5%, 10%, 20%, 30%, 40% and 50% GFP positive cells)
